The test addresses T1, double-ring GroEL construct with the same labeling positions (255C/428C) (E. coli, UniProt P0A6F5 2-548; P0A6F5 2-548, 255C | 428C, AlexaFluor 488 and AlexaFluor 594 attached at the labeling positions 255 and 428 (cysteines)).
T1 construct: GroEL subunit, E. coli, with cysteines at the labeling sites E255 and D428; unmodified GroEL subunit, E. coli; GroEL has 14 subunits in two heptameric rings; That the remaining subunits are unmodified wild-type GroEL is surmised from 'the same reassembly procedure'; also called double-ring variant; double-ring construct; source: prepared using the same reassembly procedure as the labeled SR1 …
Briefly: intramolecular single-molecule FRET of one labeled subunit (conformational read-out); pulsed-interleaved excitation smFRET on diluted, freely diffusing labeled complexes; 1 mM ATP with a stoichiometric excess of GroES relative to GroEL (also with ADP-BeFx in place of ATP); about 22 °C. The note with it: both partners purified.

We go through one molecule from doi:10.1101/2023.03.23.533937, “From Microstates to Macrostates in the Conformational Dynamics of GroEL: a Single-Molecule FRET Study” (bioRxiv, 2023).

B1: co-chaperone GroES (natural protein, E. coli)
chain: MNIRPLHDRVIVKRKEVETKSAGGIVLTGSAAAKSTRGEVLAVGNGRILENGEVKPLDVKVGDIVIFNDGYGVKSEKIDNEEVLIMSESDILAIVEA
notes: GroES, co-chaperone of GroEL, E. coli; a heptameric complex; Source and construct of GroES may stand in the supporting information; also called co-chaperonin GroES
With B1, the binding result is reported as “binds”.
